The text below walks through data of patent US20190085028A1.

The assay addresses NMDA receptor on rat hippocampal neurons (E18 Sprague Dawley primary culture) (rat), P35439. The assay can be described thus: cell-based or functional assay.

GEDDYQDAQDLIRDKSN [Peptide SEQ ID NO: 3 (…)] displayed an IC50 of inhibition of NMDA receptor-evoked current (dose-response curve, FIG. 3H) of 156 µM; an inhibition of NMDA receptor-evoked current (whole-cell patch clamp), 10 µM peptide of 14%; an inhibition of NMDA receptor-evoked current (whole-cell patch clamp), 100 µM peptide of 40%; an inhibition of NMDA receptor-evoked current (whole-cell patch clamp), 500 µM peptide of 66.5%.
